Results published in article PMC314469, “Protein Interaction Networks by Proteome Peptide Scanning” (PLoS Biology, 2004).

T1: amphyphisin SH3 (AMPH_HUMAN), P49418
T1 chain: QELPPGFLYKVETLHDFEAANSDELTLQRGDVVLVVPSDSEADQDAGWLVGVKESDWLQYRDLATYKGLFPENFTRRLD


How the values were obtained:
[1] = target: T1, amphyphisin SH3 (AMPH_HUMAN), P49418; assay: SPOT array
[2] = target: endophilin SH3 (SH3G2_HUMAN), Q99962; assay: SPOT array

Binder	normalised SPOT signal, Boehringer light units (BLU); mean over the file's lines of this peptide [1]	normalised SPOT signal, Boehringer light units (BLU); mean over the file's lines of this peptide [2]
GAGSPARPPSPRLD [BAC04581 11-25]	339	15300
GALHPPRPGRGLGQ [Q9UHX5 114-127]	441	78.6
GDAPPPRPPPPVRP [CAD38936 189-203]	1250	14700
GEDVLARPQRFAQL [Q96LA8 243-256]	194	7.6
GDSKLFRPRRPRSS [O94820 218-231]	970	233
GASSIARPFRRDSQ [Q9Y6N3 202-215]	671	120

More lines, now with the values ahead:

normalised SPOT signal, Boehringer light units (BLU); mean over the file's lines of this peptide [1]	normalised SPOT signal, Boehringer light units (BLU); mean over the file's lines of this peptide [2]	Binder
9150	5050	GDPAPSRPLRAHFL [Q9P244 448-461]
6.3	2000	GAPGPRRPFQQKPL [Q9BYB0 718-731]
3480	13800	GALPPRRPERPVGP [Q9NYR0 415-428]
12500	18700	GSVRPARPERRLRS [Q9Y5B0 72-85]
0	39.5	GAKGPRRPGEEAEL [O15417 267-280]
155	253	GDEPLPRPPRGAPH [Q92529 130-143]
1500	213	GAWPLKRPGRISSQ [Q9NXX3 159-172]
18.6	1210	GARSPKRPRLQLPG [Q9BWN1 26-39]
